Data: the Human Domainome abundance scans (Beltran et al. 2025)
± gives the uncertainty stated by the source.

B1: Transcription elongation factor A N-terminal and central domain-containing protein, residues 30 to 77; numbered along this chain, Q8N8B7 (parent)
chain: LTELETIYVTKEHLQETDVVRAVYRVLKNCPSVALKKKAKCLLSKWKA

Variants of: B1
Assay: abundance fitness (aPCA) (normalised: wild type 0, dead -1); higher = more abundant; growth selection in yeast, the domain comes from the species named
Settings: Homo sapiens

Going from S32V to K36E, the abundance fitness falls from 0.289 ± 0.13 to -1.32 ± 0.24.

K36A and K36Q are the same in abundance fitness: -0.063 ± 0.073 for the first, -0.063 ± 0.12 for the second.

Compared with K36N, K36G is higher in abundance fitness: -0.833 ± 0.19 for the first, -0.109 ± 0.062 for the second.

K36P and K36C are within error of each other in abundance fitness: -0.211 ± 0.13 for the first, -0.225 ± 0.097 for the second.

Going from K36Y to T2V, the abundance fitness falls from 0.049 ± 0.14 to -0.813 ± 0.15.

T2N and T2E are within error of each other in abundance fitness: 0.036 ± 0.25 for the first, 0.27 ± 0.12 for the second.

Going from T2A to T2R, the abundance fitness rises from -0.385 ± 0.11 to 0.011 ± 0.08.

First: H13S
Second: H13E
The abundance fitness of the first is lower: 0.02 ± 0.063 for the first, 0.262 ± 0.12 for the second.

Going from H13G to H13L, the abundance fitness falls from -0.232 ± 0.072 to -0.842 ± 0.078.

Compared with H13T, V23S is lower in abundance fitness: 0 ± 0.071 for the first, -0.54 ± 0.11 for the second.

V23F and V23I are within error of each other in abundance fitness: -0.021 ± 0.27 for the first, 0.189 ± 0.091 for the second.

Compared with V23P, V23W is higher in abundance fitness: -0.833 ± 0.16 for the first, -0.009 ± 0.1 for the second.

Going from V23L to V23A, the abundance fitness falls from 0.041 ± 0.095 to -0.453 ± 0.091.

V23K and V23R are within error of each other in abundance fitness: -0.573 ± 0.1 for the first, -0.426 ± 0.073 for the second.

V23G and A39S are within error of each other in abundance fitness: -0.72 ± 0.08 for the first, -0.745 ± 0.13 for the second.

Going from A39E to A39L, the abundance fitness rises from -0.972 ± 0.16 to -0.089 ± 0.08.

Compared with A39N, A39C is higher in abundance fitness: -0.61 ± 0.36 for the first, 0.072 ± 0.12 for the second.

A39V and A39I are within error of each other in abundance fitness: 0.096 ± 0.078 for the first, 0.2 ± 0.18 for the second.

Compared with C30Y, C30M is higher in abundance fitness: -0.632 ± 0.1 for the first, 0.035 ± 0.12 for the second.

Going from C30E to C30F, the abundance fitness rises from -0.935 ± 0.17 to 0.121 ± 0.14.

C30D and K38W are within error of each other in abundance fitness: -0.442 ± 0.16 for the first, -0.252 ± 0.12 for the second.

Compared with K38A, K38Y is lower in abundance fitness: 0.023 ± 0.097 for the first, -0.265 ± 0.18 for the second.

Going from K38C to K38E, the abundance fitness falls from 0.099 ± 0.17 to -0.933 ± 0.2.

Compared with K38L, K38Q is lower in abundance fitness: -0.024 ± 0.1 for the first, -0.645 ± 0.19 for the second.

Going from K37Q to K37C, the abundance fitness falls from -0.553 ± 0.17 to -0.895 ± 0.12.

Compared with P31V, P31H is lower in abundance fitness: 0.337 ± 0.062 for the first, -0.349 ± 0.11 for the second.

P31M and P31W are within error of each other in abundance fitness: 0.457 ± 0.08 for the first, 0.382 ± 0.075 for the second.

First: P31L
Second: P31F
The abundance fitness of the first is lower: 0.355 ± 0.063 for the first, 0.511 ± 0.092 for the second.

P31G and P31S are within error of each other in abundance fitness: 0.298 ± 0.06 for the first, 0.263 ± 0.071 for the second.

Compared with K28Q, K28P is higher in abundance fitness: -0.734 ± 0.16 for the first, -0.379 ± 0.13 for the second.

K28L and K28N are within error of each other in abundance fitness: -0.237 ± 0.077 for the first, -0.445 ± 0.14 for the second.

Going from K28I to K28M, the abundance fitness falls from -0.149 ± 0.15 to -0.749 ± 0.13.

Compared with K28H, V19L is higher in abundance fitness: -0.435 ± 0.13 for the first, -0.121 ± 0.092 for the second.

V19E and V19N are within error of each other in abundance fitness: -0.618 ± 0.2 for the first, -0.695 ± 0.43 for the second.

First: V19F
Second: V19W
The abundance fitness of the first is lower: -0.362 ± 0.18 for the first, -0.01 ± 0.15 for the second.

L43A and L43R are within error of each other in abundance fitness: -0.787 ± 0.15 for the first, -0.889 ± 0.11 for the second.

L43G and L43E are within error of each other in abundance fitness: -1.12 ± 0.14 for the first, -0.915 ± 0.23 for the second.

Going from L43D to L43Y, the abundance fitness rises from -0.829 ± 0.19 to -0.256 ± 0.22.

L43T and L43S are within error of each other in abundance fitness: -1.05 ± 0.21 for the first, -1.04 ± 0.18 for the second.

V20S and V20N are within error of each other in abundance fitness: -0.594 ± 0.13 for the first, -0.741 ± 0.39 for the second.

Compared with V20L, L27K is lower in abundance fitness: 0.113 ± 0.079 for the first, -0.845 ± 0.17 for the second.

Compared with L27P, L27E is lower in abundance fitness: -0.444 ± 0.18 for the first, -0.932 ± 0.16 for the second.
